This assay addresses photosystem I from Cyanobacterium aponinum 0216 (one monomer of the trimer, 11 protein subunits) (Cyanobacterium aponinum 0216 (endogenous)) (UniProt K9Z0B2). The assay is described as follows: cryo-EM structure; single-particle cryo-EM of the purified PSI trimer, C3 symmetry imposed; 30 mM Tricine–NaOH pH 8, 150 mM NaCl, 0.02% DDM; three monomers in the trimer.

For orientation: stoichiometry N means a count of units in the complex or per binding partner. “photosystem I from Cyanobacterium aponinum 0216 (one monomer of the trimer, 11 protein subunits) (from UniProt K9Z0B2 1-750; K9Z2J7 1-738; K9Z1N0 1-81; K9Z9J3 1-39; K9Z7Y0 1-163) (complex)” yielded a stoichiometry N of 3.

These data come from paper PMC8428864.
